This passage reports Kd and kon results from paper doi:10.64898/2025.12.22.696113.

The test concerns the target extracellular domain of Arabidopsis thaliana HAESA-LIKE 3 (HSL3, AT5G25930, residues 23–662) (Arabidopsis thaliana). The experiment in a line: SPR. Background: In SPR one partner is held on a chip, and binding of the other changes the refractive index at the surface.
Turning to CTNIP4^48–70 (peptide), the Kd was determined as 1.99 µM and the association rate constant (kon) stood at 1140 M⁻¹ s⁻¹.
As to CTNIP4^51–70 (peptide), the equilibrium dissociation constant (Kd) is 3.91 µM and the association rate constant (kon) is 568 M⁻¹ s⁻¹.
Taken in the same sequence, the figures for CTNIP4^54–70 (peptide) were 5.29 µM and 498 M⁻¹ s⁻¹.

As a reminder, the Kd is the concentration at which binding is half-saturated. A higher Kd goes with a looser complex. One may read the kon as the second-order rate constant of association. Low readings indicate slow association, high ones fast association.
